± gives the uncertainty stated by the source.
Assay: self-splicing fitness, log relative to wild type (ln ratio); higher = more splicing; Tetrahymena group I intron in knt gene, E. coli kanamycin selection, DiMSum; sequences stand for … in CUCUCU…GGAGGGAAAAGUUAUCAGGCAUGCACCUGGUAGCUAGUCUUUAAACCAAUAGAUUGCAUCGGUUUAAAAGGCAAGACCGUCAAAUUGCGGGAAAGGGGUCAACAGCCGUUCAGUACCAAGUCUCAGGGGAAACUUUGAGAUGGCCUUGCAAAGGGUAUGGUAAUAAGCUGACGGACAUGGUCCUAACCACGCAGCCAAGUCCUAAGUCAACAGAUCUUCUGUUGAUAUGGAUGCAGUUCACAGACUAAAUGUCGGUCGGGGAAGAUGUAUUCUUCUCAUAAGAUAUAGUCGGACCUCUCCUUAAUGGGAGCUAGCGGAUGAAGUGAUGCAACACUGGAGCCGCUGGGAACUAAUUUGUAUGCGAAAGUAUAUUGAUUAGUUUUGGAGUACUCGUGGUCG
Procedure, shortened: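 The eight P1ex-region nucleotides of an intron in the knt kanamycin-resistance gene on pET-22b(+) were all randomised and the library put into E. coli BL21(DE3). Six replicate transformations were grown overnight at 37°C or 30°C on LB agar with or without 25 μg/mL kanamycin, together with 100 μg/mL carbenicillin, 50 μM IPTG and 0.2% rhamnose. Colonies were pooled and amplicon-sequenced on an Illumina HiSeq 2500. Fitness from DiMSum is the error-weighted combination of wild-type-normalised replicate fold changes, kanamycin over none.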

| Sequence | self-splicing fitness (ln) (30 °C) | self-splicing fitness (ln) (37 °C) |
| --- | --- | --- |
| UGUAAGCAAUAUUACGGUCG | 0.275 ± 0.081 | -0.0342 ± 0.098 |
| UGUAAGCAAUAUUACGGUGC | -3.82 ± 0.35 | -2.13 ± 0.26 |
| UGUAAGCAAUAUUACGGUGU | -3.61 ± 0.22 | -0.0793 ± 0.17 |
| UGUAAGCAAUAUUACGUAAA | -2.36 ± 0.19 | -1.02 ± 0.16 |
| UGUAAGCAAUAUUACGUCCU | -0.564 ± 0.074 | 0.215 ± 0.079 |
| UGUAAGCAAUAUUACGUCUG | -0.606 ± 0.07 | 0.32 ± 0.093 |
| UGUCAGCAAUAUUACGAAAA | -1.06 ± 0.095 | -0.75 ± 0.096 |
| UGUCAGCAAUAUUACGAACA | -0.481 ± 0.068 | 0.521 ± 0.086 |
| UGUCAGCAAUAUUACGAACC | -0.269 ± 0.27 | -0.024 ± 0.26 |
| UGUCAGCAAUAUUACGAACU | -0.744 ± 0.086 | -0.0942 ± 0.086 |
| UGUCAGCAAUAUUACGAGCG | 0.308 ± 0.083 | 0.59 ± 0.11 |
| UGUCAGCAAUAUUACGAGGC | -1.97 ± 0.26 | -3.1 ± 0.32 |
| UGUCAGCAAUAUUACGAGUC | -3.49 ± 0.26 | -2.78 ± 0.25 |
| UGUCAGCAAUAUUACGAUUA | -0.198 ± 0.061 | 0.519 ± 0.088 |
| UGUCAGCAAUAUUACGCAGC | -3.7 ± 0.32 | -0.622 ± 0.24 |
| UGUCAGCAAUAUUACGCCCC | -0.691 ± 0.29 | 0.0501 ± 0.3 |
| UGUCAGCAAUAUUACGCCCG | -0.222 ± 0.15 | -0.125 ± 0.21 |
| UGUCAGCAAUAUUACGCUCC | -0.598 ± 0.29 | -1.2 ± 0.34 |
| UGUCAGCAAUAUUACGCUGC | -3.54 ± 0.43 | -0.934 ± 0.25 |
| UGUCAGCAAUAUUACGGCGG | -0.922 ± 0.084 | 0.0377 ± 0.12 |
| UGUCAGCAAUAUUACGUCCU | -0.0922 ± 0.06 | -0.325 ± 0.073 |
| UGUCAGCAAUAUUACGUCUU | -0.331 ± 0.071 | -0.0647 ± 0.09 |
| UGUCAGCAAUAUUACGUGCC | -0.825 ± 0.12 | -0.182 ± 0.14 |
| UGUCAGCAAUAUUACGUGCU | -3.51 ± 0.25 | -2.23 ± 0.24 |
| UGUCAGCAAUAUUACGUGGU | -4.15 ± 0.18 | -1.96 ± 0.11 |
| UGUCAGCAAUAUUACGUGUA | -0.648 ± 0.056 | 0.127 ± 0.074 |

| Sequence | self-splicing fitness (ln) (30 °C) | self-splicing fitness (ln) (37 °C) |
| --- | --- | --- |
| UGUCAGCAAUAUUACGUUUC |  | -2.07 ± 0.28 |
| UGUGAGCAAUAUUACGAACU | -0.733 ± 0.14 | 0.203 ± 0.21 |
| UGUGAGCAAUAUUACGACGG | -1.3 ± 0.34 | -0.759 ± 0.28 |
| UGUGAGCAAUAUUACGAGCA | -0.913 ± 0.16 | -0.797 ± 0.21 |
| UGUGAGCAAUAUUACGAUCU | -1.57 ± 0.15 | -0.175 ± 0.14 |
| UGUGAGCAAUAUUACGCCUG | -1.48 ± 0.16 | -1.05 ± 0.16 |
| UGUGAGCAAUAUUACGCGAU | -3.88 ± 0.33 | -3.57 ± 0.37 |
| UGUGAGCAAUAUUACGCGCG | -1.13 ± 0.43 |  |
| UGUGAGCAAUAUUACGCGGA | -2.4 ± 0.2 | -1.31 ± 0.21 |
| UGUGAGCAAUAUUACGGACA | -1.44 ± 0.13 | 0.089 ± 0.13 |
| UGUGAGCAAUAUUACGGCCA | -0.0854 ± 0.18 | 0.465 ± 0.34 |
| UGUGAGCAAUAUUACGGCGC | -1.23 ± 0.33 |  |
| UGUGAGCAAUAUUACGGGAA |  | -2.51 ± 0.33 |
| UGUGAGCAAUAUUACGGGGA | -2.36 ± 0.29 | -1.65 ± 0.33 |
| UGUGAGCAAUAUUACGUAGC | -4.22 ± 0.42 | -1.65 ± 0.29 |
| UGUGAGCAAUAUUACGUUCU | -3.79 ± 0.33 | -3.12 ± 0.4 |
| UGUUAGCAAUAUUACGAAGA |  | -1.54 ± 0.4 |
| UGUUAGCAAUAUUACGACGG | -0.352 ± 0.16 | -0.218 ± 0.18 |
| UGUUAGCAAUAUUACGACUA | 0.407 ± 0.22 | -0.164 ± 0.19 |
| UGUUAGCAAUAUUACGAGGG | -3.43 ± 0.26 | -1.84 ± 0.23 |
| UGUUAGCAAUAUUACGAUUU | -0.79 ± 0.11 | -1.55 ± 0.14 |
| UGUUAGCAAUAUUACGCAGA | -0.741 ± 0.46 | -0.752 ± 0.3 |
| UGUUAGCAAUAUUACGCAUU | -2.6 ± 0.27 | -1.47 ± 0.2 |
| UGUUAGCAAUAUUACGCCAA | -1.32 ± 0.19 | -1.4 ± 0.23 |
| UGUUAGCAAUAUUACGCCUU | -0.953 ± 0.37 | -1.4 ± 0.33 |
| UGUUAGCAAUAUUACGCGGG | -2.74 ± 0.29 | -1.57 ± 0.26 |

| Sequence | self-splicing fitness (ln) (30 °C) | self-splicing fitness (ln) (37 °C) |
| --- | --- | --- |
| UGUUAGCAAUAUUACGCGUU | -1.38 ± 0.1 | -1.01 ± 0.11 |
| UGUUAGCAAUAUUACGCUAG | -1.94 ± 0.5 | -1.4 ± 0.47 |
| UGUUAGCAAUAUUACGCUGA | -2.26 ± 0.44 |  |
| UGUUAGCAAUAUUACGGCCA | 0.385 ± 0.17 | 0.166 ± 0.14 |
| UGUUAGCAAUAUUACGGUAA | -1.05 ± 0.1 | -0.0801 ± 0.097 |
| UGUUAGCAAUAUUACGGUUA | -0.39 ± 0.086 | 0.504 ± 0.088 |
| UGUUAGCAAUAUUACGUAAC | -1.65 ± 0.46 | -1.55 ± 0.5 |
| UGUUAGCAAUAUUACGUACG | -0.624 ± 0.17 | 0.229 ± 0.22 |
| UGUUAGCAAUAUUACGUGCG | -1.23 ± 0.11 | -0.303 ± 0.14 |
| UGUUAGCAAUAUUACGUGUA | -2.88 ± 0.16 | -0.349 ± 0.1 |
| UGUUAGCAAUAUUACGUGUU | -3.3 ± 0.29 | -3.27 ± 0.47 |
| UGUUAGCAAUAUUACGUUGU | -3.71 ± 0.28 | -2.3 ± 0.17 |
| UUAAAGCAAUAUUACGACAG | 0.285 ± 0.1 | 0.0597 ± 0.14 |
| UUAAAGCAAUAUUACGAGGC | -3.94 ± 0.37 | -2.36 ± 0.29 |
| UUAAAGCAAUAUUACGAGGG | -2.1 ± 0.17 | -1.12 ± 0.26 |
| UUAAAGCAAUAUUACGAUAU | -1.05 ± 0.11 | -0.358 ± 0.13 |
| UUAAAGCAAUAUUACGAUCU | -0.857 ± 0.065 | -0.22 ± 0.088 |
| UUAAAGCAAUAUUACGAUGA | 0.452 ± 0.081 | 0.681 ± 0.11 |
| UUAAAGCAAUAUUACGAUGG | 0.00244 ± 0.084 | 0.04 ± 0.1 |
| UUAAAGCAAUAUUACGCCCA | 0.818 ± 0.11 | 0.402 ± 0.14 |
| UUAAAGCAAUAUUACGCGCG | -0.058 ± 0.12 | 0.00297 ± 0.16 |
| UUAAAGCAAUAUUACGCUAU | -3.01 ± 0.14 | -0.748 ± 0.1 |
| UUAAAGCAAUAUUACGCUUA | -1.02 ± 0.083 | -0.561 ± 0.11 |
| UUAAAGCAAUAUUACGGAGA | -1.64 ± 0.15 | 0.00703 ± 0.2 |
| UUAAAGCAAUAUUACGGCUA | 0.185 ± 0.091 | 0.424 ± 0.12 |

Source: the supplement of paper PMC7877785
